Measurements reported in patent US20230416375A1 (VERSAPEUTICS, published 2023).
Substitutions are numbered along the chain they refer to. Where two headings read alike, the source gives them in different places.

Columns and labels:
[1] = target: T1, … variant with 9I exchanged by L (human); assay: peptide microarray substitution scan, Ab5.5_var1 at 100 µg/mL
T1 construct: Substitution scan peptide
T1 peptide: LDKNTSRTLYDPVHA

[2] = target: T2, wild type peptide LDKNTSRTIYDPVHA (SEQ ID NO:32) (human); assay: as above
T2 construct: Printed on a peptide microarray; also called Homo sapiens Ryk(206-220)
T2 peptide: LDKNTSRTIYDPVHA

[3] = target: … variants with 7R replaced by other amino acids; assay: as above
[4] = target: … variants with 13V replaced by other amino acids; assay: as above
[5] = target: … variants with 12P exchanged by other amino acids; assay: as above
[6] = target: … variants with 8T exchanged by other amino acids; assay: as above
full length mouse RYK = target: T3, full length mouse RYK (mouse, UniProt Q01887 35-594); assay: Western blot of RIPA lysates (30 µg per lane) of transfected HEK293 cells, Ab5.5_Var1 at 1 µg/mL, anti-human secondary, LI-COR detection
T3 construct: Expressed from a plasmid (Macheda et al.) in HEK293, and the lysate was probed by Western blot; also called Mus musculus Ryk

full length human RYK = full length human RYK (human, UniProt P34925 26-607); assay: cell-based or functional assay
[7] = target: T4, peptides with the highly basic consensus motif SSKNFTVLNFKRRK (SEQ ID NO:29) (human); assay: PEPperMAP linear epitope mapping: microarray of 15-mer peptides (14 aa overlap) of human Ryk 134-227, antibody at 10 µg/mL, goat anti-human IgG (Fc) DyLight680
T4 construct: Array spots were 15-mers sharing this motif; also called Homo sapiens Ryk(179-192)
T4 peptide: SSKNFTVLNFKRRK

[8] = target: T5, peptides with the consensus motif TSRTIYDPV (SEQ ID NO:28) (human); assay: as above
T5 construct: The array spots were adjacent 15-mers of human Ryk 134-227 sharing this motif; also called Homo sapiens Ryk(210-218)
T5 peptide: TSRTIYDPV

[9] = target: T6, peptides with the highly basic consensus motif TVLNFKRRKMCYKK (SEQ ID NO:30) (human); assay: as above
T6 construct: Array spots were 15-mers sharing this motif; also called Homo sapiens Ryk(184-197)
T6 peptide: TVLNFKRRKMCYKK

[10] = target: T7, peptides with the highly basic consensus motif RRKMCYKKLEEVK (SEQ ID NO:31) (human); assay: as above
T7 construct: Array spots were 15-mers sharing this motif; also called Homo sapiens Ryk(190-202)
T7 peptide: RRKMCYKKLEEVK

[11] = target: T4, peptides with the highly basic …; assay: as above
[12] = target: T5, peptides with the consensus motif …; assay: as above
[13] = target: T6, peptides with the highly basic …; assay: as above
[14] = target: T7, peptides with the highly basic …; assay: as above
[15] = target: T7, peptides with the highly basic …; assay: PEPperMAP linear epitope mapping: microarray of 15-mer peptides (14 aa overlap) of human Ryk 134-227, goat anti-human IgG (Fc) DyLight680
[16] = target: T5, peptides with the consensus motif …; assay: PEPperMAP linear epitope mapping: microarray of 15-mer peptides (14 aa overlap) of human Ryk 134-227, antibody at 100 µg/mL, goat anti-human IgG (Fc) DyLight680
[17] = target: T8, peptides with the basic consensus motif VLNFKRRKMCYKK (SEQ ID NO:36) (human); assay: as above
T8 construct: Array spots were 15-mers sharing this motif; also called Homo sapiens Ryk(185-197)
T8 peptide: VLNFKRRKMCYKK

[18] = target: T9, single peptide NSSKNFTVLNFKRRK (SEQ ID NO:35) (human); assay: as above
T9 construct: also called Homo sapiens Ryk(178-192)
T9 peptide: NSSKNFTVLNFKRRK

[19] = target: T1, … variant with 9I exchanged by L; assay: peptide microarray substitution scan, Ab5.5 at 1 µg/mL
[20] = target: T2, wild type peptide LDKNTSRTIYDPVHA (SEQ …); assay: as above
[21] = target: … variants with 11D exchanged by other amino acids; assay: as above
[22] = target: … variants with 7R replaced by other amino acids; assay: as above
[23] = target: … variants with 13V replaced by other amino acids; assay: as above
[24] = target: … variants with 12P exchanged by other amino acids; assay: as above
[25] = target: … variants with 10Y exchanged by other amino acids; assay: as above
[26] = target: … variants with 8T exchanged by other amino acids; assay: as above

B1: Ab5.5_var1 (antibody, V domains shown)
VH: EVQLVESGGGLVQPGGSLRLSCAASGFTFSSYTMSWIRQAPGKGLEWVAYISNGGGGTYYPDSVKGRFTISRDNAKNTLYLQMNSLRAEDTAVYYCTRHGDNGDYWGHGSLVTVSS
VL: DIQMTQSPSSLSASVGDRVTITCKASQDINSYLSWIQQKPGKAPKTLIYRANRLVDGVPSRFSGSGSGTDYTLTISSLQPEDFATYYCLQYDEFPLTFGAGTKVEIK
notes: Detected with anti-human IgG (Fc); also called variant 1; v1
Does B1 bind [1]?
Result: binds

Does B1 bind [2]?
Result: binds

What about the % lower spot intensity than the wild type peptide [3] of the same binder?
The % lower spot intensity than the wild type peptide was over 70%.

And the % lower spot intensity than the wild type peptide [4]?
The % lower spot intensity than the wild type peptide was over 62%.

And the % lower spot intensity than the wild type peptide [5]?
Its % lower spot intensity than the wild type peptide is 35%.

What about the % lower spot intensity than the wild type peptide [6] of the same binder?
Its % lower spot intensity than the wild type peptide is 7.5%.

Does B1 bind (full length mouse RYK)?
Result: binds

What about the “IC50 of inhibition of canonical Wnt signaling (luciferase reporter) in HEK 293 STF cells stimulated with 250 ng/mL human Wnt-3a” value (full length human RYK) of the same binder?
The value was 484 µg/mL.

Does B1 bind [7]?
Result: binds

Does B1 bind [8]?
Result: binds

Does B1 bind [9]?
Result: binds

Does B1 bind [10]?
Result: binds

B2: Ab5.5_var2 (antibody, V domains shown)
VH: B1 VH with T78S, H108Q
VL: B1 VL
notes: Detected with anti-human IgG; also called Variant 2; variant 2
Does B2 bind [11]?
Result: binds

Does B2 bind [12]?
Result: binds

Does B2 bind [13]?
Result: binds

Does B2 bind [14]?
Result: binds

B3: Ab5.5_var10 (antibody, V domains shown)
VH: B1 VH with V48A, N53T, P61V, T78S
VL: B1 VL with V19A, A100G
notes: Detected with anti-human IgG; also called variant 10; v10
Which results are given for B3?
binding result [15]: no binding (tested: 100 µg/mL); binding result [16]: binds; binding result [17]: binds; binding result [18]: binds

B4: Ab5.5 (antibody, V domains shown)
VH: EVKLVESGGDLVQPGGSLKLSCAASGFTFSSYTMSWIRQTPEKRLEWVAYISNGGGGTYYPDTVKGRFTISRDNAKNTLYLQMNSLKSEDTAMYYCTRHGDNGDYWGHGSTLTVSS
VL: DIKMTQSPSSMYASLGERVTITCKASQDINSYLSWIQQKPGKSPKTLIYRANRLVDGVPSRFSGSGSGQDYSLTISSLEYEDMGIYYCLQYDEFPLTFGAGTKLELK
notes: Parental murine variable domains; also called Chimera antibody; Parental
What does the source list for B4?
binding result [19]: binds; binding result [20]: binds; % lower spot intensity than the wild type peptide [21]: > 83%; % lower spot intensity than the wild type peptide [22]: > 67%; % lower spot intensity than the wild type peptide [23]: > 58%; % lower spot intensity than the wild type peptide [24]: 33%; % lower spot intensity than the wild type peptide [25]: > 83%; % lower spot intensity than the wild type peptide [26]: 27%
